Results taken from US20150132331A1.

Biological target: HA stem domain construct mutant M6 (A/California/05/2009 (H1N1) HA stem fused to foldon, refolded trimer) (Influenza A virus A/California/05/2009 (H1N1))

Substance: antibody C179 (Mouse IgG) (TAKAR Bio INC.)
- fold better recognition than commercial full-length HA: 30 fold
